This note sets out measurements from patent US20200255527.

For data set [1], the target named is FH-AGO2-K726R (UniProt Q9UKV8).
For data set [2], the target named is FH-AGO2 mono-methylated at K726 (ectopically expressed in MCF-7 cells with LSD1 inhibited) (UniProt Q9UKV8).
Chain of FH-AGO2 mono-methylated at K726 (ectopically expressed in MCF-7 cells with LSD1 inhibited) (Q9UKV8 whole entry): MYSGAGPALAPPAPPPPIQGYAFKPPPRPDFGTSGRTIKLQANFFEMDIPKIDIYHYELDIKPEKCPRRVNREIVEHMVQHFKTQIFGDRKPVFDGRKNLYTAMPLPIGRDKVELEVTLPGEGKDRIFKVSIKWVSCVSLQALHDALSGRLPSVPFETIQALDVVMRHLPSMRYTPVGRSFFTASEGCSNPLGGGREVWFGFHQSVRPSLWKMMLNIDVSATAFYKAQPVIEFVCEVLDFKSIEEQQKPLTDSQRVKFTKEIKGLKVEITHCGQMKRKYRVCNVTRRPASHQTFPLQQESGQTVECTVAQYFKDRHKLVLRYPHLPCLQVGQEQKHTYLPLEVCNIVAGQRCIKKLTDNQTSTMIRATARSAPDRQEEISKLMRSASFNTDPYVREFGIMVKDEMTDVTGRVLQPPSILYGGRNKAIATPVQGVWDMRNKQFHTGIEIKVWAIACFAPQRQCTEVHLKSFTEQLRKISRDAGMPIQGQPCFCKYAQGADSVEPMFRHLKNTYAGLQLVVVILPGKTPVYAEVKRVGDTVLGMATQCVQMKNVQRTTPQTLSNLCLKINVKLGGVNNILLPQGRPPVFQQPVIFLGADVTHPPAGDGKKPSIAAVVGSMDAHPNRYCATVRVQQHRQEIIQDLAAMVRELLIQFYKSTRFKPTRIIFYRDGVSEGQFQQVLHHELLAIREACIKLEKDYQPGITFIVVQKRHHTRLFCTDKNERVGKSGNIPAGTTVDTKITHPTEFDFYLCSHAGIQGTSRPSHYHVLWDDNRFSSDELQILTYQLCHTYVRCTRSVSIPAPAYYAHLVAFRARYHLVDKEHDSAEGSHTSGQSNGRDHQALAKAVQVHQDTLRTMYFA

Chain of FH-AGO2-K726R (Q9UKV8 whole entry K726R): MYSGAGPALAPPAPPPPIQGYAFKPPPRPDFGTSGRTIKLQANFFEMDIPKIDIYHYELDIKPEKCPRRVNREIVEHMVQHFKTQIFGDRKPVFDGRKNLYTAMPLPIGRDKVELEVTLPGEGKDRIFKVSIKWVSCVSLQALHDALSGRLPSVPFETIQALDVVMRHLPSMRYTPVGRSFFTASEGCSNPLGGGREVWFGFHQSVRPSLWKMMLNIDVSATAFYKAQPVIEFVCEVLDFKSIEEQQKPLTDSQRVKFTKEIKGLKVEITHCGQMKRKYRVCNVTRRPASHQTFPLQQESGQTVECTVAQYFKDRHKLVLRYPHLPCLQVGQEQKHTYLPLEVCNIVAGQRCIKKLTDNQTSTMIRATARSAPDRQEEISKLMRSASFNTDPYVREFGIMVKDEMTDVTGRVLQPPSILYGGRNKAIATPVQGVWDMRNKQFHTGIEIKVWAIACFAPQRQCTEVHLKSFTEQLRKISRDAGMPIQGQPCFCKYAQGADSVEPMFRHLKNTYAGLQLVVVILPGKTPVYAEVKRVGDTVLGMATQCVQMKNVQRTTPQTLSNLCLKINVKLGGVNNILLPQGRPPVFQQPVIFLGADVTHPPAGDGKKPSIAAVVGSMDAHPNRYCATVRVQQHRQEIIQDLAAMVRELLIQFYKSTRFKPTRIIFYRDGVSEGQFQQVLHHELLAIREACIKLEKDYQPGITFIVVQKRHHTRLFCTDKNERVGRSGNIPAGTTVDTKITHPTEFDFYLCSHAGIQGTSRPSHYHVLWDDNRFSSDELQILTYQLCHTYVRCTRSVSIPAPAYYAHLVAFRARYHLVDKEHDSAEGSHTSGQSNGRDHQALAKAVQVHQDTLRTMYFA

For “FH-LSD1 (Flag-HA-tagged LSD1 stably expressed in MCF-7 cells)”, in data set [1], the “K726me1 level in in vitro demethylation assay” value is reported as “had no observable effects on FH-AGO2-K726R”. Further, the “K726me1 level on FH-AGO2 in in vitro demethylation assay” value in data set [2] is recorded as “FH-LSD1 but not FH-LSD1-K661A decreased K726me1 level on FH-AGO2”.
Regarding “FH-LSD1-K661A (catalytically compromised LSD1)”, the “K726me1 level on FH-AGO2 in in vitro demethylation assay” value in data set [2] is listed as “FH-LSD1 but not FH-LSD1-K661A decreased K726me1 level on FH-AGO2”.
